Experimental findings from US20210061908A1 (IOMX THERAPEUTICS, published 2021) are described below.

Where two headings read alike, the source gives them in different places.

Experiment [1] has as its target T1, extracellular domain (ECD) of human IGSF11 (VSIG3), HIS-tagged (human, UniProt Q5DX21 23-241, biotinylated in the ELISA of Example 4 (site not stated)).
T1 construct: also called HIS-IGSF11; IGSF11-HIS; not shown: HIS6 tag
T1 sequence: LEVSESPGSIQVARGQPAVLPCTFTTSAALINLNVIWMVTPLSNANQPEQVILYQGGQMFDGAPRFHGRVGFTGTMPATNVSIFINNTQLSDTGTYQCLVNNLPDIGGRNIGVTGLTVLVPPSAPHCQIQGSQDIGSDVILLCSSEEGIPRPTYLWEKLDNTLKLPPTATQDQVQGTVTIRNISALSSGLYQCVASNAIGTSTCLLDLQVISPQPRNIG
The experiment in a line: ELISA, coated IGSF11-HIS, IgG1 format; EC50 grade (* >1 nM, ** 0.05-1 nM, *** 0.02-0.05 nM, **** <0.02 nM). For orientation: ELISA stands for enzyme-linked immunosorbent assay.

Experiment [2] has as its target T2, human IGSF11 (VSIG3) expressed on the surface of cells (human, UniProt Q5DX21 23-431).
T2 construct: one molecule for all cell lines; the cell line is named under assay; also called IGSF11-expressing cells; HEK-OE
T2 sequence: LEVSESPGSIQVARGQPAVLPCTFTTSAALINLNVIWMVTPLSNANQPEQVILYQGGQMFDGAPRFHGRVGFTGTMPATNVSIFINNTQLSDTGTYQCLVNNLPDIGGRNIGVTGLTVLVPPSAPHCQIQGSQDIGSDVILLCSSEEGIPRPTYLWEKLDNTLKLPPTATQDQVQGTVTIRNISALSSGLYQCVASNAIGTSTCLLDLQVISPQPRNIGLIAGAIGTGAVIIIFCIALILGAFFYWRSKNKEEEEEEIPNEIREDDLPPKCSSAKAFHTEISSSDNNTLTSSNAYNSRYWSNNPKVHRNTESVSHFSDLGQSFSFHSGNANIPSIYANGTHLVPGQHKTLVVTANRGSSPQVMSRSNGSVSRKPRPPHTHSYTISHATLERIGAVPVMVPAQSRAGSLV
Description: FACS on DMS 273 cells treated with scrambled control siRNA (SC).

In experiment [3] the target is T2, human IGSF11 (VSIG3) expressed on the …. Description: FACS, IgG1 format, recombinant HEK cells expressing IGSF11 (HEK-OE). (In general: In flow cytometry, cells or beads pass a laser one at a time.)
Experiment [4] has the same target. Description: FACS on M579-A2-luc cells treated with IGSF11 siRNA (KD: target knocked down, specificity control).
Experiment [5] has the same target. Description: FACS on M579-A2-luc cells treated with scrambled control siRNA (SC).
Experiment [6] has as its target CL-11 (C). The experiment in a line: FACS on CL-11 cells (do not express IGSF11; negative cell line) treated with scrambled control siRNA (SC).
Experiment [7] has as its target T2, human IGSF11 (VSIG3) expressed on the …. Description: FACS on DMS 273 cells treated with IGSF11 siRNA (KD: target knocked down, specificity control).
Experiment [8] concerns the target CL-11 (C). The experiment in a line: FACS on CL-11 cells (do not express IGSF11; negative cell line) treated with IGSF11 siRNA (KD).
The target of experiment [9] is T2, human IGSF11 (VSIG3) expressed on the …. The experiment in a line: FACS, IgG1 format, DMS 273 cells.
Experiment [10] deals with T3, IGSF11 (VSIG3), construct used in SPR and BLI not stated (UniProt Q5DX21 23-241, limits assumed).
T3 sequence (looked up): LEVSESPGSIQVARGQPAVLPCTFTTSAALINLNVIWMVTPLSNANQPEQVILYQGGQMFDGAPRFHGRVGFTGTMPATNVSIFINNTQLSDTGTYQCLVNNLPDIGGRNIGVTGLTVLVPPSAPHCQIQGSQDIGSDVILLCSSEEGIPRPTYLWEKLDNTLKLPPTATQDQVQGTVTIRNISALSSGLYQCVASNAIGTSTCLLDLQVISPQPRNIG
The experiment in a line: BLI (Octet), IgG1 format; IGSF11 construct not stated.

In experiment [11] the target is T3, IGSF11 (VSIG3), construct used in SPR …. Description: SPR (Biacore), IgG1 format; IGSF11 construct not stated.
In experiment [12] the target is T1, extracellular domain (ECD) of human …. Description: ELISA: IGSF11-HIS coated, IgG1 antibody titrated, anti-human antibody-HRP and TMB; X-axis nM and Y-axis absorbance per legend paragraph 30.
Experiment [13] shares this target. Description: blocking ELISA (Example 5): IgG titrated and pre-incubated with 200 nM his-tagged IGSF11 ECD, complexes added to immobilised VSIR-Fc, bound IGSF11 detected with anti-hexahistidine-HRP; blocked ligand: VSIR-Fc.
For experiment [14] the target is unchanged. Described as above. The source holds these as a separate data set.

B1: A-007 (human IgG1 format) (antibody, V domains shown)
VH: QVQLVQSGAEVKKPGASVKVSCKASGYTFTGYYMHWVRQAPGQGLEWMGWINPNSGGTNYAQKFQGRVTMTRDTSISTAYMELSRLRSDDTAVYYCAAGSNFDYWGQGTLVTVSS
VL: QSALTQPASVSGSPGQSITIACTGSSSDIGSFSYVSWYQQRPGKAPTLIIYGVNNRPLGVSRRFSGSKSGNTASLSISGLQAEDEADYYCSSYTRRSTVIFGGGTKLTVL
notes: human IgG1 format
For orientation: EC50 means the concentration that produces a half-maximal response. Turning to B1, the EC50 in experiment [1] was < 0.02 nM; in experiment [3], > 10 nM; in experiment [9], > 10 nM. The percentage binding was determined as 82.3% in experiment [2]; 9.15% in experiment [4]; 65.6% in experiment [5]; 8.88% with CL-11 (C) [6]; 34.2% in experiment [7]; 13.2% in the experiment with CL-11 (C) [8].

B2: A-011 (human IgG1 format) (antibody, V domains shown)
VH: QVQLVESGGGVVQPGRSLRLSCAASGFTFSSYAMHWVRQAPGKGLEWVAVISYDGSNKYYADSVKGRFTISRDNSKNTLYLQMNSLRAEDTAVYYCAEGGALNYYGMDVWGQGTTVTVSS
VL: SSELTQDPGVSVALGQTVRITCQGDSLRHFYATWYQQKPGQAPILVIYGKNNRPSGIPDRFSGSSSEDTASLTITGAQAEDEADYYCQSRDPRNNHLIFGGGTKLIVL
notes: human IgG1 format
Usually Kd stands for the constant that tells how readily two partners part at equilibrium. A higher Kd goes with lower affinity. In the case of B2, the EC50 in experiment [1] is < 0.02 nM; in experiment [3] it was > 50 nM. For the same molecule, the percentage binding in [2] was determined as 6.95%; in experiment [4] it was 2.41%; in [5], 2.05%; with CL-11 (C) [6] it was 2.87%; in experiment [7], 3.4%; in the experiment with CL-11 (C) [8] it was 4.86%. Besides, the Kd is 10 to 20 nM in experiment [10] and 250 to 500 nM in experiment [11].

B3: A-022 (human IgG1 format) (antibody, V domains shown)
VH: EVQLLESGPGLVKPSQTLSLTCTVSGGSISSGGYYWSWIRQHPGKGLEWIGYIYYSGSTYYNPSLKSRVTISVDTSKNQFSLKLSSVTAADTAVYYCARASRSTDYYFDYWGQGTLVTVSS
VL: QPGLTQPPSMSYGLGQTATLTCTGNRNNIGDQGAAWLQQHQGHPPKLLSYRNNNGPSGISERLSASRSGNTASLTISGLQPEDEADYYCSAWDSSLRAWVFGGGTKLTVL
notes: human IgG1 format
On to B3, for which the EC50 is < 0.02 nM in experiment [1], 10 to 50 nM in [3] and 10 to 50 nM in experiment [9].

B4: A-024 (human IgG1 format) (antibody, V domains shown)
VH: QMQLVQSGAEVKKPGSSVKVSCKASGGTFSSYAISWVRQAPGQGLEWMGWISAYNGNTNYAQKLQGRVTMTTDTSTSTAYMELRSLRSDDTAVYYCASLGSYGYTGAFDIWGQGTMATVSS
VL: QSALTQPASVSGSPGQSITISCTGTSSDVGGYNYVSWYQQHPGKAPKLMIYEVSNRPSGVSNRFSGSKSGNTASLTISGLQAEDEADYYCSSYTSSSTLVVFGGGTKLTVL
With B4, the values for the concentration for a half-maximal effect (EC50) in experiment [1] and in experiment [9] were 0.02 to 0.05 nM and < 10 nM, respectively. In addition, the Kd in [11] was > 500 nM.

B5: A-006 (human IgG1 format) (antibody, V domains shown)
VH: EVQLVESGGGLIQPGGSLRLSCAASGFTVSSNYMSWVRQAPGKGLEWVSVIYSGGSTYYADSVKGRFTISRDNSKNTLYLQMNSLRAEDTAVYYCARGNPYYYGDLQVNFDYWGQGTLVTVSS
VL: QAVVTQEPSLTVSPGGTVTLTCASSTGAVTSGYYPNWFQQKPGQAPRPLIYSTSNKHSWTPARFSGSLLGGKAALTLSGVQPDDEAEYYCLLYYGGDWVFGGGTKLTVL
notes: human IgG1 format
B5: the EC50 is < 0.02 nM in [1], 10 to 50 nM in [3] and > 50 nM in experiment [9]. The percentage binding in experiment [2] amounted to 81.1%; in experiment [4], 2.59%; in experiment [5] it was 75.3%; with CL-11 (C) [6], 2.31%; in experiment [7] it was 5.72%; in the experiment with CL-11 (C) [8] it was 3.04%. In addition, the Kd was 1 to 10 nM in experiment [10] and 250 to 500 nM in experiment [11].

B6: B-005 (chain-swapped, human IgG1 format) (antibody, V domains shown)
VH: EVQLLESGGGLIQPGGSLRLSCAVSGFTVSSNYMSWVRQAPGKGLEWVSVIYSGGSTYYADSVKGRFTISRDNSKNTLYLQMNSLRAEDTAVYYCARGNPYYYGDLQVNFDYWGQGTLVTVSS
VL: QAVVTQEPSLTVSPGGTVTPTCGSSTGAVTSGNLPNWFQQKPGQAPRALIYSTSNKHSWTPARISGSLLGGKAALTLSGVQPEDEAEYYCLLYYGGAWVFGGGTKLTVL
notes: VH of A-012 with VL of A-002; IgG1 format; also called B5; Chains-B-005
In general, EC50 (read off the curve) refers to the concentration at which the effect is half-maximal. As to B6, in experiment [12], the “EC50 (read off the curve)” value was ~10 pM. Moreover, the “IC50 (read off the curve)” value in experiment [13] was ~2 nM.

B7: B-003 (chain-swapped, human IgG1 format) (antibody, V domains shown)
VH: EVQLLESGGGLIQPGGSLRLSCAVSGFTVSSNYMSWVRQAPGKGLEWVSVIYSGGSTYYADSVKGRFTISRDNSKNTLYLQMNSLRAEDTAVYYCARGNPYYYGDLQVNFDYWGQGTLVTVSS
VL: QAVVTQEPSLTVSPGETVTLTCASSTGAVTSGYYPNWFQQRPGQAPRALIYSTSNKDSWTPARFSGSLLGGKAALTLSGVQPEDEAEYYCLLYYGGAWVFGGGTKLTVL
notes: VH of A-012 with VL of A-005; IgG1 format; also called B3; Chains-B-003
In the case of B7, the “EC50 (read off the curve)” value in experiment [12] is ~9 pM. Further, in experiment [13], the “IC50 (read off the curve)” value was ~2 nM.

B8: B-007 (chain-swapped, human IgG1 format) (antibody, V domains shown)
VH: EVQLVESGGGLIQPGGSLRLSCAASGFTVSSNYMSWVRQAPGKGLEWVSVIYSGGSTYYADSVKGRFTISRDNSKNTLYLQMNSLRAEDTAVYYCARGNPYYYGDLQVNFDYWGQGTLVTVSS
VL: QAVVTQEPSLTVSPGGTVTLTCASSTGAVTSAYYPNWFQQKPGQAPRALIYSTSNKHSWTPARFSGSLLGGKAALTLSGVQPEDEADYYCLLYYGGAWVFGGGTKLTVL
notes: VH of A-006 with VL of A-013; IgG1 format; also called B7; Chains-B-007
Take B8: the “IC50 (read off the curve)” value in [14] was ~3 nM.

B9: B-008 (chain-swapped, human IgG1 format) (antibody, V domains shown)
VH: EVQLVESGGGLIQPGGSLRLSCAASGFTVSSNYMSWVRQAPGKGLEWVSVIYSGGSTYYADSVKGRFTISRDNSKNTLYLQMNSLRAEDTAVYYCARGNPYYYGDLQVNFDYWGQGTLVTVSS
VL: QAVVTQEPSLTVSPGGTVTPTCGSSTGAVTSGNLPNWFQQKPGQAPRALIYSTSNKHSWTPARISGSLLGGKAALTLSGVQPEDEAEYYCLLYYGGAWVFGGGTKLTVL
notes: VH of A-006 with VL of A-002; IgG1 format; also called B8; Chains-B-008
B9: the “IC50 (read off the curve)” value in experiment [14] is ~4 nM.

B10: A-013 (human IgG1 format) (antibody, V domains shown)
VH: EVQLVESGGGLIQPGGSLRLSCAASGFTVSSNYMSWVRQAPGKGLEWVSVIYSGGSTYYADSVKGRFTISRDNSKNTLYLQMNSLRAEDTAVYYCARGNPYYYGDLQVNFDYWGQGTLVTVSS
VL: QAVVTQEPSLTVSPGGTVTLTCASSTGAVTSAYYPNWFQQKPGQAPRALIYSTSNKHSWTPARFSGSLLGGKAALTLSGVQPEDEADYYCLLYYGGAWVFGGGTKLTVL
notes: human IgG1 format
B10: the EC50 in [1] was < 0.02 nM; in experiment [3], 10 to 50 nM; in [9], > 50 nM. Further, the Kd in experiment [11] is 100 to 250 nM.
